Assay [1] concerns the target CBFβ140-His (residues 1-140 of CBFβ with six histidine residues at the N-terminus) (human) (UniProt Q13951). Nature of the assay: SEC. For orientation: Size exclusion chromatography separates by hydrodynamic size, large species first.
Assay [2] concerns the target His-tagged CBFβ187 (mouse CBFβ, residues 1-187) (mouse) (UniProt Q08024). In words: SEC.
The target in assay [3] is CBFβ140-His (residues 1-140 of CBFβ with six histidine residues at the N-terminus) (human) (UniProt Q13951). Nature of the assay: SEC; Vif-CBFβ complexes co-expressed and purified by nickel affinity, Superdex 200 10/300 GL, 20 mM Tris-HCl pH 8.0, 150 mM NaCl, 10% glycerol; peak fractions by SDS-PAGE and Coomassie staining.

UniProt Q13951, sequence (Q13951 1-140): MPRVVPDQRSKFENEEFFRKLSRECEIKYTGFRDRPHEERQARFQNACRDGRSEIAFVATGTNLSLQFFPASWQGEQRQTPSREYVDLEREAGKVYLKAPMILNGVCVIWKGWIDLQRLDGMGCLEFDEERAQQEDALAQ
UniProt Q08024, sequence (Q08024 whole entry, the tested form may be a part): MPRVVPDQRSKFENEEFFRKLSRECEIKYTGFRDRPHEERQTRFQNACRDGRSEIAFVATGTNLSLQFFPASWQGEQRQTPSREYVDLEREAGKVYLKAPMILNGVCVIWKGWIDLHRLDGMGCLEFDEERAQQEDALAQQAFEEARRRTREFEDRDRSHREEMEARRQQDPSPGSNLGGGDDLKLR

Usually stoichiometry N stands for a count of units in the complex or per binding partner. In the case of “Elongin B / Elongin C (residues 17 to 112) (from UniProt Q15370 1-118; Q15369 17-112) (complex)”, the stoichiometry N in assay [1] and in assay [2] was 1 in each case. “full-length HIV-1 Vif (residues 1-192) (from UniProt P12504) (natural protein)”: the stoichiometry N in assay [1], in assay [2] and in assay [3] was 1 throughout. For the substance “truncated HIV-1 Vif140 (residues 1-140) (from UniProt P12504 1-140) (domain or fragment)”, in assay [3], the stoichiometry N turned out to be 1.

For “truncated HIV-1 Vif176 (residues 1-176) (from UniProt P12504 1-176) (domain or fragment)”, the stoichiometry N in assay [3] is 1.

These data come from publication PMC3316577.
